Like-named read-outs stand apart in the source and are kept apart here.
Legend:
[1] = in vivo; cited from earlier work
HUVEC = experiment: Cell killing assay in HUVEC (PrestoBlue viability, 5 days); assay type: cell-based; details: Homo sapiens
Method: To assess the effect of anti-TM4SF1 ADCs conjugated to carfilzomib, cytotoxicity of treated cell lines were assessed in cultured endothelial cell (HUVEC) and tumor cells (MiaPaca2 and SKOV3) in vitro. HUVEC was treated with free carfilzomib, CFZ-ND-ADC DAR 2.5, and CFZ-ND-ADC DAR 6.7, and maytansine-ND-ADC (DAR 2.0) and cytotoxicity was assessed (FIG. 2A). Cytotoxicity of HUVEC correlates with CFZ DAR. […] Cell killing assay. […] RPMI/10% FBS for MiaPaca2 and SKOV3). Cells are cultured for overnight at 37° C. degrees. On day 2, exemplary ADCs containing CFZ are serially diluted 5-fold in the culture media, and 100 µL of the diluted compounds is transferred to the cell plates. The final top concentration of the test exemplary ADCs in the cell plates is 333.335 nM and the lowest concentration is 0.0043 nM. […] 10 µl PrestoBlue HS cell viability reagent (ThermoFisher cat# P50201) is added to each well and incubated for 1 hour in CO2 incubator before reading the […] at 570 nm/600 nm excitation and emission through a plate reader (Varioskan™ LUX multimode microplate reader). To assess the effect of various anti-TM4SF1 ADCs conjugated to carfilzomib, cytotoxicity of treated cell lines were assessed. HUVEC was treated with free carfilzomib, and six ADCs (Table 1A) conjugated with carfilzomib (CFZ) with various linkers and/or DAR values, and cytotoxicity was assessed (Table 1B).

[2] = molecular target: T1, Transmembrane-4 L six family member-1 (TM4SF1) (human, UniProt P30408 1-202, limits assumed); experiment: screen, method not described
T1 construct: also called human TM4SF1; hTM4SF1
T1 sequence: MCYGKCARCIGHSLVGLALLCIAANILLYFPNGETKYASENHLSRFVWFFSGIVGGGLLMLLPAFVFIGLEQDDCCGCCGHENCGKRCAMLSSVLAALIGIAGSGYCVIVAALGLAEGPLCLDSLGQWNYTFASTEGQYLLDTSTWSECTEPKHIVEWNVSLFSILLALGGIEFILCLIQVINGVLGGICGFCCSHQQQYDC

| binding result [2] | Molecule | further results |
| --- | --- | --- |
| binds | AGX-A04 (antibody, V domains shown, Monoclonal murine antibody; also called murine monoclonal antibody AGX-A04) VH: EVQLQQSGPELVKPGASVKISCKTSGYTFTDYTMHWVRQSHGKSLEWIGSFNPNNGGLTNYNQKFKGKATLTVDKSSSTVYMDLRSLTSEDSAVYYCTRIRATGFDSWGQGTTLTVSS VL: DIVMSQSPSSLAVSAGEKVTMSCKSSQSLLNSRTRKNYLAWYQQKPGQSPKLLIYWASTRESGVPDRFTGSGSGTDFTLTISNVQAEDLTVYYCKQSYNPPWTFGGGTKLEIK |  |
| binds | AGX-A08 (antibody, V domains shown, Monoclonal murine antibody; also called murine monoclonal antibody AGX-A08) VH: EVQLQQSGPELVKPGASVKLSCKASGYTVTSYVMHWVKQKPGQGLEWIGYINPYSDVTNCNEKFKGKATLTSDKTSSTAYMELSSLTSEDSAVYYCSSYGGGFAYWGQGTLVTVSA VL: DIQMTQSPASLSASVGEPVTITCRASKNIYTYLAWYHQKQGKSPQFLVYNARTLAGGVPSRLSGSGSVTQFSLNINTLHREDLGTYFCQHHYDTPYTFGGGTNLEIK |  |
| binds | AGX-A07 (antibody, V domains shown, also called murine monoclonal antibody AGX-A07) VH: QIQLVQSGPELKKPGETVKISCKASGYTFTNYGVKWVKQAPGKDLKWMGWINTYTGNPIYAADFKGRFAFSLETSASTAFLQINNLKNEDTATYFCVRFQYGDYRYFDVWGAGTTVTVSS VL: QIILSQSPAILSASPGEKVTMTCRANSGISFINWYQQKPGSSPKPWIYGTANLASGVPARFGGSGSGTSYSLTISRVEAEDAATYYCQQWSSNPLTFGAGTKLELR |  |
| binds | AGX-A03 (antibody, V domains shown, Monoclonal murine antibody; also called Antibody AGX-A03; murine monoclonal antibody AGX-A03) VH: QIQLVQSGPELKKPGETVKISCKASGYSFRDYGMNWVKQAPGRTFKWMGWINTYTGAPVYAADFKGRFAFSLDTSASAAFLQINNLKNEDTATYFCARWVSYGNNRNWFFDFWGAGTTVTVSS VL: DVLMTQTPLSLPVRLGDQASISCRSSQTLVHSNGNTYLEWYLQKPGQSPKLLIYKVSNRLSGVPDRFSGSGSGTDFTLKISRVETEDLGVYYCFQGSHGPWTFGGGTKLEIK |  |

The next lines start with the molecule.

| Molecule | binding result [2] | further results |
| --- | --- | --- |
| COc1ccc(/C=C\c2cc(OC)c(OC)c(OC)c2)cc1OP(=O)(O)O [CA4P] |  | patients who experienced heart attacks while being treated [1]: seven |
| CC(C)C[C@H](NC(=O)[C@H](CCc1ccccc1)NC(=O)CN1CCOCC1)C(=O)N[C@@H](Cc1ccccc1)C(=O)N[C@@H](CC(C)C)C(=O)[C@@]1(C)CO1 [CFZ, (S)-4-Methyl-N—((S)-1-(((S)-4-methyl-1-((R)-2-methyloxiran-2-yl)-1-oxopentan-2-yl)amino)-1-oxo-3-phenylpropan-2-yl)-2-((S)-2-(2-morpholinoacetamido)-4-phenylbutanamido)-pentanamide] |  | EC50 (HUVEC; FIG. 2A, read-out: EC50, cytotoxicity of HUVEC): 11.9 nM; EC50 (HUVEC; read-out: killing in vitro (EC50 nM) HUVEC): 11.9 nM |
| AGX-A05 (antibody, V domains shown, Monoclonal murine antibody; also called murine monoclonal antibody AGX-A05) VH: EVQVQQSGPELVKPGASVKMSCKASGYTFTSYVMHWVKQKPGQGLEWIGYINPNNDNINYNEKFKGKASLTSDKSSNTVYMELSSLTSEDSAVYYCAGYGNSGANWGQGTLVTVSA VL: DIQMTQSPASLSASVGETVTITCRTSKNIFNFLAWYHQKQGRSPRLLVSHTKTLAAGVPSRFSGSGSGTQFSLKINSLQPEDFGIYYCQHHYGTPWTFGGGTKLEIK | binds |  |
| AGX-A09 (antibody, V domains shown, Monoclonal murine antibody; also called murine monoclonal antibody AGX-A09) VH: EVQLQQSGPELVKPGASVKMSCKASGYTFSSYVMHWVKQKPGQGLEWIGYINPYSDVTNYNEKFKGKATLTSDRSSNTAYMELSSLTSEDSAVYYCARNYFDWGRGTLVTVSA VL: DIQMTQSPASLSASVGETVTITCRASKNVYSYLAWFQQKQGKSPQLLVYNAKTLAEGVPSRFSGGGSGTQFSLKINSLQPADFGSYYCQHHYNIPFTFGSGTKLEIK | binds |  |

Source: patent publication US20230293713A1, “ANTI-TM4SF1 ANTIBODY DRUG CONJUGATES AND METHODS OF USING SAME” (priority 2020, published 2023)
